One molecule from patent US20190062389A1 can be followed below.

Experiment [1] has as its target HLA-A*02:01 molecule (product of HLA-A*02:01 gene) on T2 cells (human). As to the kind of experiment: flow cytometry, T2 cells with added b2m, peptide dilution series, BB7.2 staining. In general terms: A flow cytometer gives signals particle by particle.
For experiment [2], the target named is HLA-A*24:02 molecule (product of HLA-A*24:02 gene) on C1R-A24 cells (human). Briefly: flow cytometry, acid-stripped C1R-A24 cells with added b2m, peptide dilution series, 17A12 staining.
The target of experiment [3] is HLA-A*02:06 molecule (product of HLA-A*02:06 gene) on RA2.6 cells (human). As to the kind of experiment: flow cytometry, RA2.6 cells, peptide dilution series, BB7.2 staining.

For SLTPQAFEF (modifications not checked) [GPC3-derived peptide … (SEQ ID NO: 5)], the Binding Experiment Data (log Kd) (log Kd (concentration unit not given)) in experiment [1] was -4.93; in experiment [2], -7.11; in experiment [3], -4.52.
